Key:
HeLa Kyoto [1] = experiment: solubility in G1/S (NP-40 vs SDS abundance) (log2 ratio); higher = more soluble; conditions: cell cycle stage: G1/S
HeLa Kyoto [2] = experiment: melting temperature (median over replicates), in situ; higher = more thermally stable
HeLa Kyoto [3] = experiment: solubility change mitosis vs G1/S (difference of NP-40 vs SDS log2 ratios) (log2 ratio difference); higher = more soluble in mitosis
HeLa Kyoto [4] = experiment: thermal stability score vs G1/S (z-score of summed log2 fold changes over temperatures); higher = more thermally stable than in G1/S
[5] = cell cycle stage: early G1 (4.5 h after nocodazole release)
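For melting temperature (median over replicates), in situ in this document: HeLa Kyoto cells synchronized by double thymidine or nocodazole block, proteins quantified by TMT10plex mass spectrometry, three independent biological replicates.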
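For solubility change mitosis vs G1/S (difference of NP-40 vs SDS log2 ratios) in this document: synchronized HeLa Kyoto cells (double thymidine block for G1/S, nocodazole release for mitosis), protein amounts in NP-40 versus SDS lysates quantified by mass spectrometry, three biological replicates.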
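For solubility in G1/S (NP-40 vs SDS abundance) in this document: HeLa Kyoto cells arrested at G1/S by double thymidine block, proteins quantified by TMT10plex mass spectrometry in mild NP-40 versus SDS extracts, three biological replicates.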
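For thermal stability score vs G1/S (z-score of summed log2 fold changes over temperatures) in this document: synchronized HeLa Kyoto cells, proteins quantified by TMT10plex mass spectrometry, three biological replicates, mitosis taken 0.5 h after nocodazole release, G1/S directly after double thymidine block.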

Sequence of PHF23 (chain, as listed by the source): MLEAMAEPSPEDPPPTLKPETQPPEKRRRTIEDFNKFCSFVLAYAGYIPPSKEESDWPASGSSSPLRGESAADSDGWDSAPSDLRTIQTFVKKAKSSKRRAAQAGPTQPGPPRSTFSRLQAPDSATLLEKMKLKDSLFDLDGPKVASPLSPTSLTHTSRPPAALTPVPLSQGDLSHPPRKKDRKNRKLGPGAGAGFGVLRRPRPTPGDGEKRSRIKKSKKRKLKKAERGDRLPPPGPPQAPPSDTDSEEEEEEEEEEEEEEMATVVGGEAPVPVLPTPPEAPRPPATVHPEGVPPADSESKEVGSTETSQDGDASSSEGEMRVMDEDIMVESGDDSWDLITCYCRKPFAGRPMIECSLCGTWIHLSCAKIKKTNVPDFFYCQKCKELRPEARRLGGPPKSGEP

Substance | solubility in G1/S (log2) (HeLa Kyoto [1]) | melting temperature (HeLa Kyoto [2]; cell cycle stage: G1/S) [°C] | melting temperature (HeLa Kyoto [2]; cell cycle stage: mitosis) [°C] | solubility change mitosis (log2) (HeLa Kyoto [3]) | thermal stability score (HeLa Kyoto [4]; [5]) | thermal stability score (HeLa Kyoto [4]; cell cycle stage: mitosis)
MGPAPAGEQLRGATGEPEVMEPALEGTGKEGKKASSRKRTLAEPPAKGLLQPVKLSRAELYKEPTNEELNRLRETEILFHSSLLRLQVEELLKEVRLSEKKKDRIDAFLREVNQRVVRVPSVPETELTDQAWLPAGVRVPLHQVPYAVKGCFRFLPPAQVTVVGSYLLGTCIRPDINVDVALTMPREILQDKDGLNQRYFRKRALYLAHLAHHLAQDPLFGSVCFSYTNGCHLKPSLLLRPRGKDERLVTVRLHPCPPPDFFRPCRLLPTKNNVRSAWYRGQSPAGDGSPEPPTPRYNTWVLQDTVLESHLQLLSTILSSAQGLKDGVALLKVWLRQRELDKGQGGFTGFLVSMLVVFLVSTRKIHTTMSGYQVLRSVLQFLATTDLTVNGISLCLSSDPSLPALADFHQAFSVVFLDSSGHLNLCADVTASTYHQVQHEARLSMMLLDSRADDGFHLLLMTPKPMIRAFDHVLHLRPLSRLQAACHRLKLWPELQDNGGDYVSAALGPLTTLLEQGLGARLNLLAHSRPPVPEWDISQDPPKHKDSGTLTLGLLLRPEGLTSVLELGPEADQPEAAKFRQFWGSRSELRRFQDGAIREAVVWEAASMSQKRLIPHQVVTHLLALHADIPETCVHYVGGPLDALIQGLKETSSTGEEALVAAVRCYDDLSRLLWGLEGLPLTVSAVQGAHPVLRYTEVFPPTPVRPAFSFYETLRERSSLLPRLDKPCPAYVEPMTVVCHLEGSGQWPQDAEAVQRVRAAFQLRLAELLTQQHGLQCRATATHTDVLKDGFVFRIRVAYQREPQILKEVQSPEGMISLRDTAASLRLERDTRQLPLLTSALHGLQQQHPAFSGVARLAKRWVRAQLLGEGFADESLDLVAAALFLHPEPFTPPSSPQVGFLRFLFLVSTFDWKNNPLFVNLNNELTVEEQVEIRSGFLAARAQLPVMVIVTPQDRKNSVWTQDGPSAQILQQLVVLAAEALPMLEKQLMDPRGPGDIRTVFRPPLDIYDVLIRLSPRHIPRHRQAVDSPAASFCRGLLSQPGPSSLMPVLGYDPPQLYLTQLREAFGDLALFFYDQHGGEVIGVLWKPTSFQPQPFKASSTKGRMVMSRGGELVMVPNVEAILEDFAVLGEGLVQTVEARSERWTV [NOL6] | -1.58 | 52.4 | 51.4 | 0.851 | -1.55 | -1.79
MGKKQKNKSEDSTKDDIDLDALAAEIEGAGAAKEQEPQKSKGKKKKEKKKQDFDEDDILKELEELSLEAQGIKADRETVAVKPTENNEEEFTSKDKKKKGQKGKKQSFDDNDSEELEDKDSKSKKTAKPKVEMYSGSDDDDDFNKLPKKAKGKAQKSNKKWDGSEEDEDNSKKIKERSRINSSGESGDESDEFLQSRKGQKKNQKNKPGPNIESGNEDDDASFKIKTVAQKKAEKKERERKKRDEEKAKLRKLKEKEELETGKKDQSKQKESQRKFEEETVKSKVTVDTGVIPASEEKAETPTAAEDDNEGDKKKKDKKKKKGEKEEKEKEKKKGPSKATVKAMQEALAKLKEEEERQKREEEERIKRLEELEAKRKEEERLEQEKRERKKQKEKERKERLKKEGKLLTKSQREARARAEATLKLLQAQGVEVPSKDSLPKKRPIYEDKKRKKIPQQLESKEVSESMELCAAVEVMEQGVPEKEETPPPVEPEEEEDTEDAGLDDWEAMASDEETEKVEGNKVHIEVKENPEEEEEEEEEEEEDEESEEEEEEEGESEGSEGDEEDEKVSDEKDSGKTLDKKPSKEMSSDSEYDSDDDRTKEERAYDKAKRRIEKRRLEHSKNVNTEKLRAPIICVLGHVDTGKTKILDKLRHTHVQDGEAGGITQQIGATNVPLEAINEQTKMIKNFDRENVRIPGMLIIDTPGHESFSNLRNRGSSLCDIAILVVDIMHGLEPQTIESINLLKSKKCPFIVALNKIDRLYDWKKSPDSDVAATLKKQKKNTKDEFEERAKAIIVEFAQQGLNAALFYENKDPRTFVSLVPTSAHTGDGMGSLIYLLVELTQTMLSKRLAHCEELRAQVMEVKALPGMGTTIDVILINGRLKEGDTIIVPGVEGPIVTQIRGLLLPPPMKELRVKNQYEKHKEVEAAQGVKILGKDLEKTLAGLPLLVAYKEDEIPVLKDELIHELKQTLNAIKLEEKGVYVQASTLGSLEALLEFLKTSEVPYAGINIGPVHKKDVMKASVMLEHDPQYAVILAFDVRIERDAQEMADSLGVRIFSAEIIYHLFDAFTKYRQDYKKQKQEEFKHIAVFPCKIKILPQYIFNSRDPIVMGVTVEAGQVKQGTPMCVPSKNFVDIGIVTSIEINHKQVDVAKKGQEVCVKIEPIPGESPKMFGRHFEATDILVSKISRQSIDALKDWFRDEMQKSDWQLIVELKKVFEII [EIF5B] | -0.19 | 51.5 | 51.6 | 0.0872 | 1.35 | 2.42
MALRPGAGSGGGGAAGAGAGSAGGGGFMFPVAGGIRPPQAGLMPMQQQGFPMVSVMQPNMQGIMGMNYSSQMSQGPIAMQAGIPMGPMPAAGMPYLGQAPFLGMRPPGPQYTPDMQKQFAEEQQKRFEQQQKLLEEERKRRQFEEQKQKLRLLSSVKPKTGEKSRDDALEAIKGNLDGFSRDAKMHPTPASHPKKPGPSLEEKFLVSCDISTSGQEQIKLNTSEVGHKALGPGSSKKYPSLMASNGVAVDGCVSGTTTAEAENTSDQNLSIEESGVGVFPSQDPAQPRMPPWIYNESLVPDAYKKILETTMTPTGIDTAKLYPILMSSGLPRETLGQIWALANRTTPGKLTKEELYTVLAMIAVTQRGVPAMSPDALNQFPAAPIPTLSGFSMTLPTPVSQPTVIPSGPAGSMPLSLGQPVMGINLVGPVGGAAAQASSGFIPTYPANQVVKPEEDDFQDFQDASKSGSLDDSFSDFQELPASSKTSNSQHGNSAPSLLMPLPGTKALPSMDKYAVFKGIAADKSSENTVPPGDPGDKYSAFRELEQTAENKPLGESFAEFRSAGTDDGFTDFKTADSVSPLEPPTKDKTFPPSFPSGTIQQKQQTQVKNPLNLADLDMFSSVNCSSEKPLSFSAVFSTSKSVSTPQSTGSAATMTALAATKTSSLADDFGEFSLFGEYSGLAPVGEQDDFADFMAFSNSSISSEQKPDDKYDALKEEASPVPLTSNVGSTVKGGQNSTAASTKYDVFRQLSLEGSGLGVEDLKDNTPSGKSDDDFADFHSSKFSSINSDKSLGEKAVAFRHTKEDSASVKSLDLPSIGGSSVGKEDSEDALSVQFDMKLADVGGDLKHVMSDSSLDLPTVSGQHPPAADIEDLKYAAFGSYSSNFAVSTLTSYDWSDRDDATQGRKLSPFVLSAGSGSPSATSILQKKETSFGSSENITMTSLSKVTTFVSEDALPETTFPALASFKDTIPQTSEQKEYENRDYKDFTKQDLPTAERSQEATCPSPASSGASQETPNECSDDFGEFQSEKPKISKFDFLVATSQSKMKSSEEMIKSELATFDLSVQGSHKRSLSLGDKEISRSSPSPALEQPFRDRSNTLNEKPALPVIRDKYKDLTGEVEENERYAYEWQRCLGSALNVIKKANDTLNGISSSSVCTEVIQSAQGMEYLLGVVEVYRVTKRVELGIKATAVCSEKLQQLLKDIDKVWNNLIGFMSLATLTPDENSLDFSSCMLRPGIKNAQELACGVCLLNVDSRSRKEEKPAEEHPKKAFNSETDSFKLAYGGHQYHASCANFWINCVEPKPPGLVLPDLL [SYNRG] | 0.0486 | 49.9 | 49.7 | -0.164 | 0.188 | 1.39
MWPGNAWRAALFWVPRGRRAQSALAQLRGILEGELEGIRGAGTWKSERVITSRQGPHIRVDGVSGGILNFCANNYLGLSSHPEVIQAGLQALEEFGAGLSSVRFICGTQSIHKNLEAKIARFHQREDAILYPSCYDANAGLFEALLTPEDAVLSDELNHASIIDGIRLCKAHKYRYRHLDMADLEAKLQEAQKHRLRLVATDGAFSMDGDIAPLQEICCLASRYGALVFMDECHATGFLGPTGRGTDELLGVMDQVTIINSTLGKALGGASGGYTTGPGPLVSLLRQRARPYLFSNSLPPAVVGCASKALDLLMGSNTIVQSMAAKTQRFRSKMEAAGFTISGASHPICPVMLGDARLASRMADDMLKRGIFVIGFSYPVVPKGKARIRVQISAVHSEEDIDRCVEAFVEVGRLHGALP [GCAT] | 0.194 | 53.3 | 53.3 | -0.0435 | -0.218 | -1.56
ATP13A1 | -0.281 | 53.1 | 52.9 | -0.00617 | -0.031 | -0.441
MSCCDLAAAGQLGKASIMASDCEPALNQAEGRNPTLERYLGALREAKNDSEQFAALLLVTKAVKAGDIDAKTRRRIFDAVGFTFPNRLLTTKEAPDGCPDHVLRALGVALLACFCSDPELAAHPQVLNKIPILSTFLTARGDPDDAARRSMIDDTYQCLTAVAGTPRGPRHLIAGGTVSALCQAYLGHGYGFDQALALLVGLLAAAETQCWKEAEPDLLAVLRGLSEDFQKAEDASKFELCQLLPLFLPPTTVPPECYRDLQAGLARILGSKLSSWQRNPALKLAARLAHACGSDWIPAGSSGSKFLALLVNLACVEVRLALEETGTEVKEDVVTACYALMELGIQECTRCEQSLLKEPQKVQLVSVMKEAIGAVIHYLLQVGSEKQKEPFVFASVRILGAWLAEETSSLRKEVCQLLPFLVRYAKTLYEEAEEANDLSQQVANLAISPTTPGPTWPGDALRLLLPGWCHLTVEDGPREILIKEGAPSLLCKYFLQQWELTSPGHDTSVLPDSVEIGLQTCCHIFLNLVVTAPGLIKRDACFTSLMNTLMTSLPALVQQQGRLLLAANVATLGLLMARLLSTSPALQGTPASRGFFAAAILFLSQSHVARATPGSDQAVLALSPEYEGIWADLQELWFLGMQAFTGCVPLLPWLAPAALRSRWPQELLQLLGSVSPNSVKPEMVAAYQGVLVELARANRLCREAMRLQAGEETASHYRMAALEQCLSEP [NCDN] | 0.191 | 49.8 | 50.2 | -0.084 | 1.7 | 2.44
PHF23 | 0.107 | 51.1 | 53.2 | 0.0233 | -0.742 | 0.2
MLLLPSAADGRGTAITHALTSASTLCQVEPVGRWFEAFVKRRNRNASASFQELEDKKELSEESEDEELQLEEFPMLKTLDPKDWKNQDHYAVLGLGHVRYKATQRQIKAAHKAMVLKHHPDKRKAAGEPIKEGDNDYFTCITKAYEMLSDPVKRRAFNSVDPTFDNSVPSKSEAKDNFFEVFTPVFERNSRWSNKKNVPKLGDMNSSFEDVDIFYSFWYNFDSWREFSYLDEEEKEKAECRDERRWIEKQNRATRAQRKKEEMNRIRTLVDNAYSCDPRIKKFKEEEKAKKEAEKKAKAEAKRKEQEAKEKQRQAELEAARLAKEKEEEEVRQQALLAKKEKDIQKKAIKKERQKLRNSCKTWNHFSDNEAERVKMMEEVEKLCDRLELASLQCLNETLTSCTKEVGKAALEKQIEEINEQIRKEKEEAEARMRQASKNTEKSTGGGGNGSKNWSEDDLQLLIKAVNLFPAGTNSRWEVIANYMNIHSSSGVKRTAKDVIGKAKSLQKLDPHQKDDINKKAFDKFKKEHGVVPQADNATPSERFEGPYTDFTPWTTEEQKLLEQALKTYPVNTPERWEKIAEAVPGRTKKDCMKRYKELVEMVKAKKAAQEQVLNASRAKK [DNAJC2] | 0.0111 | 48.6 | 48.7 | -0.0365 | 1.17 | 1.39
MSGLRVYSTSVTGSREIKSQQSEVTRILDGKRIQYQLVDISQDNALRDEMRALAGNPKATPPQIVNGDQYCGDYELFVEAVEQNTLQEFLKLA [SH3BGRL3] | -0.259 | 54.2 | 52.6 | -0.132 | -2.26 | -3.11
MAAGTSSYWEDLRKQARQLENELDLKLVSFSKLCTSYSHSSTRDGRRDRYSSDTTPLLNGSSQDRMFETMAIEIEQLLARLTGVNDKMAEYTNSAGVPSLNAALMHTLQRHRDILQDYTHEFHKTKANFMAIRERENLMGSVRKDIESYKSGSGVNNRRTELFLKEHDHLRNSDRLIEETISIAMATKENMTSQRGMLKSIHSKMNTLANRFPAVNSLIQRINLRKRRDSLILGGVIGICTILLLLYAFH [GOSR1] | 0.28 | 54.7 | 52 | 0.02 | -0.21 | -0.667
